Columns and labels:
[1] = molecular target: AvrMla6 avirulence gene product of Erysiphe graminis f. sp. hordei (Erysiphe (=Blumeria) graminis f sp hordei)
[2] = molecular target: AvrMla1 avirulence gene product of Erysiphe graminis f. sp. hordei (Erysiphe (=Blumeria) graminis f sp hordei)
[3] = molecular target: AvrMla6 avirulence gene product of Erysiphe graminis f. sp. hordei (Erysiphe (=Blumeria) graminis f sp hordei); remark: listed apart in the source

Substance | percent of GUS stained wheat (CERCO) cells with an attached spore that contain haustorium, isolate A6 [1] | percent of GFP-Mlo expressing cells with an attached spore that support a fungal colony (3-component single-cell assay, mlo-5 barley leaves, isolate K1) [2] | percent of GFP-Mlo expressing cells with an attached spore that support a fungal colony (3-component single-cell assay, mlo-5 barley leaves, isolate A6) [3]
MLA6 polypeptide (product of Mla6 of barley line C.I. 16151) | 9.2% | 46.5% | 9.4%
MLA1 polypeptide (product of R gene A, Mla1, of barley line CI-16137, AlgR Mla1) | 23.9% | 9.3% | 47.1%
